Reference: patent US6861508B2, “Transcriptional intermediary factor-2” (Institut National de la Sante et de la Recherche Medicale, priority 1996, dated 2005)

Key:
[1] = test system: ER, RARα and RXRα LBDs; test: GST pull-down of TIF2 polypeptides with NR LBDs; format: binding; settings: in vitro, with or without 10^−6 M ligand
Method in brief: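 In vitro GST-fusion pull-downs tested TIF2 deletion or point-mutant polypeptides against ER or RARα LBDs. Point-mutant binding was quantified relative to a TIF2.1 wildtype standard. Values are means of at least three experiments with SD.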

[2] = test system: CBP (residues 1872 to 2165); test: GST-CBP pull-down of TIF2 polypeptides; format: binding
Method: (d) Mapping of the CBP-interacting domain of TIF2. GST puld own experiments were performed with ^35S-labeled in-vitro-translated TIF2 polypeptides and bacterially produced GST and GST-CBP (expressing CBP residues 1872 to 2165).
(c) Interaction of TIF2 AF-1 mutants with CBP in vitro. GST pull-down experiments were performed with ^35S-labeled in-vitro-translated GAL-TIF2 fusion proteins and bacterially produced GST and GST-CBP.
(c) Interaction of TIF2.13 wildtype and TIF2.13 mutants with CBP in vitro. GST pull-down experiments were performed with ^35S-labeled in-vitro-translated VP16-TIF2.13 polypeptides and bacterially produced GST and GST-CBP.
Furthermore, it was reported that SRC-1, which belongs to the same gene family as TIF2, interacts with CBP and p300 (Kamei, Y. et al., Cell 85:403-414 (1996); Yao, T. P. et al., Proc. Natl. Acad. Sci. USA 93:10626-10631 (1996); Hanstein, B., et al., Proc. Natl. Acad Sci USA 93:11540-11545 (1996)). Using GST-fusion protein-based interaction and animal cell-based two hybrid assays, we therefore analyzed whether TIF2 could also interact with CBP. […] A GST-CBP fusion protein was expressed in E. coli and used for puU-down assays with in vitro translated TIF2 polypeptides (FIG. 7d).

[3] = molecular target: T1, GST-hRARα(DEF) (pGEX2T-hRARα(DEF), amino acids 153-462) (human, UniProt P10276 153-462); test: GST pull-down with 35S in-vitro-translated TIF2 polypeptides, with or without 10^-6 M all-trans-retinoic acid
T1 construct: range 153-462; Bacterially produced; also called GST-RAR; GST-RARα(DEF); not shown: glutathione-S-transferase (GST) of pGEX2T (Pharmacia)
T1 sequence (looked up): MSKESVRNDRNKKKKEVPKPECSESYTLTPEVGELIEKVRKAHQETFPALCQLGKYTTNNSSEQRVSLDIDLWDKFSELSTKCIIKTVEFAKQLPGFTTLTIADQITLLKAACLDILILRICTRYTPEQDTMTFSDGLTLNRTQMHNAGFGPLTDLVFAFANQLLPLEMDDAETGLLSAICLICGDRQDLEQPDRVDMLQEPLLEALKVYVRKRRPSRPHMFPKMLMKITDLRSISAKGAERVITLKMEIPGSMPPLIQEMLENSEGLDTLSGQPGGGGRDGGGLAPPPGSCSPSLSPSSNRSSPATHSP

[4] = molecular target: T2, GST-hERα(DEF) (pGEX2T-hERα(DEF), amino acids 282-595) (human, UniProt P03372 282-595); test: GST pull-down with 35S in-vitro-translated TIF2 polypeptides, with or without 10^-6 M estradiol
T2 construct: range 282-595; Bacterially produced; also used 32P-labelled as Far-Western probe; also called GST-ER; GST-ER(DEF); not shown: glutathione-S-transferase (GST) of pGEX2T (Pharmacia)
T2 sequence (looked up): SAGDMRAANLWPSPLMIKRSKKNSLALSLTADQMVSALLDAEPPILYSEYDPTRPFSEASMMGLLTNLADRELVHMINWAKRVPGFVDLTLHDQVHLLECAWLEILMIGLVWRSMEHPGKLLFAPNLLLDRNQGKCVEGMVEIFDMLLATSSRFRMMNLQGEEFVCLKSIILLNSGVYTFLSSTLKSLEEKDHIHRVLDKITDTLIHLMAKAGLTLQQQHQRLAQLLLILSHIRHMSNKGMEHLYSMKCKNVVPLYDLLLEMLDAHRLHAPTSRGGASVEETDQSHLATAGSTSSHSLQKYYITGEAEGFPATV

B1: TIF2.2 (TIF2 amino acids 1288-1464) (other)
chain: NPRIPQANAQQFPFPPNYGISQQPDPGFTGATTPQSPLMSPRMAHTQSPMMQQSQANPAYQAPSDINGWAQGNMGGNSMFSQQSPPHFGQQANTSMYSNNMNINVSMATNTGGMSSMNQMTGQISMTSVTSVSTSGLSSMGPEQVNDPALRGGNLFPNQLPGMDMIKQEGDTTRKYC
notes: In-vitro-translated; also called AD2
binding to NRs (ER, RARα LBDs) [1]: cannot bind NRs | binding to GST-CBP in vitro [2]: did not show any binding | binding result [3]: no binding | binding result [4]: no binding
